Experiment [1] addresses T1, FcγRIa (human, UniProt P12314 16-292).
T1 construct: extracellular domain; Soluble extracellular domain with C-terminal His tag, used as analyte in Biacore; also called FcgRI; 1a; not shown: His tag attached to the C terminus
Kind of experiment: SPR (Biacore); He/Con_1a divided by He/Con_2b (FcγRIa against FcγRIIb).

In experiment [2] the target is T1, FcγRIa. The experiment in a line: SPR (Biacore), antibody captured on antigen peptide, FcγR as analyte; relative to GpH7-A5/GpH7-B3/GpL16-k0 = 100.
Experiment [3] has as its target T2, FcγRIIb (human, UniProt P31994 43-217).
T2 construct: extracellular domain; Soluble extracellular domain with C-terminal His tag, used as analyte in Biacore; also called FcgRIIb; 2b; not shown: His tag attached to the C terminus
T2 sequence (looked up): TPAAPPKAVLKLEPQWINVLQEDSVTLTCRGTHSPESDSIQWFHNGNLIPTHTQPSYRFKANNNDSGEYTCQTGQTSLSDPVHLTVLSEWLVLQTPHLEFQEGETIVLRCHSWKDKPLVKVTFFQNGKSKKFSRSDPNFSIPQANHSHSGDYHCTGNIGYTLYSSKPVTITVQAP
Described as above.

T1 sequence (P12314 16-292): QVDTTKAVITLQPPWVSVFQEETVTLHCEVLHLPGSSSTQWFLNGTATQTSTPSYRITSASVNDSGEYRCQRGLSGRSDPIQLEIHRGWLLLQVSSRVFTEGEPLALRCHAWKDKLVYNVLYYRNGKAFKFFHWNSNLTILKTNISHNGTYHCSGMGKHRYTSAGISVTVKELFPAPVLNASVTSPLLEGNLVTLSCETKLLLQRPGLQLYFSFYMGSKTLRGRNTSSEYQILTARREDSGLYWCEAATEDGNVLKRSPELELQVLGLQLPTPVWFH

B1: GpH7-A5/GpH7-B3 variant H268_01G/GpL16-k0 (antibody, human IgG1, kappa)
heavy 1: not shown
heavy 2: not shown
light: DIVMTQSPLSLPVTPGEPASISCQASESLVHSNRNTYLHWYLQKPGQSPQLLIYKVSNRFSGVPDRFSGSGSGTDFTLKISRVEAEDVGVYYCSQNTHVPPTFGQGTKVEIERTVAAPSVFIFPPSDEQLKSGTASVVCLLNNFYPREAKVQWKVDNALQSGNSQESVTEQDSKDSTYSLSSTLTLSKADYEKHKVYACEVTHQGLSSPVTKSFNRGEC
notes: Heterodimerized IgG1; mutation in the GpH7-B3 H chain only; also called He Ab
Take B1: in experiment [1], the “Ia/IIb He_1a/2b” value came out at 0.75 ratio. Also, the He/Con_1a in experiment [2] is 107 % of control. Besides, in experiment [3], the He/Con_2b was 144 % of control.

B2: GpH7-A5/GpH7-B3 variant P238_09D/GpL16-k0 (antibody, human IgG1, kappa)
heavy 1: not shown
heavy 2: not shown
light: DIVMTQSPLSLPVTPGEPASISCQASESLVHSNRNTYLHWYLQKPGQSPQLLIYKVSNRFSGVPDRFSGSGSGTDFTLKISRVEAEDVGVYYCSQNTHVPPTFGQGTKVEIERTVAAPSVFIFPPSDEQLKSGTASVVCLLNNFYPREAKVQWKVDNALQSGNSQESVTEQDSKDSTYSLSSTLTLSKADYEKHKVYACEVTHQGLSSPVTKSFNRGEC
notes: as for B1
With B2, the “Ia/IIb He_1a/2b” value in experiment [1] was determined as 0.43 ratio. Also, the He/Con_1a in experiment [2] is 96 % of control. Moreover, in experiment [3], the He/Con_2b was 221 % of control.

B3: GpH7-A5/GpH7-B3 variant H268_02A/GpL16-k0 (antibody, human IgG1, kappa)
heavy 1: not shown
heavy 2: not shown
light: DIVMTQSPLSLPVTPGEPASISCQASESLVHSNRNTYLHWYLQKPGQSPQLLIYKVSNRFSGVPDRFSGSGSGTDFTLKISRVEAEDVGVYYCSQNTHVPPTFGQGTKVEIERTVAAPSVFIFPPSDEQLKSGTASVVCLLNNFYPREAKVQWKVDNALQSGNSQESVTEQDSKDSTYSLSSTLTLSKADYEKHKVYACEVTHQGLSSPVTKSFNRGEC
notes: as for B1
For the molecule B3, the “Ia/IIb He_1a/2b” value in experiment [1] worked out at 0.65 ratio. In addition, the He/Con_1a in experiment [2] was 109 % of control. Besides, the He/Con_2b in experiment [3] is 167 % of control.

B4: GpH7-A5/GpH7-B3 variant P238_15Y/GpL16-k0 (antibody, human IgG1, kappa)
heavy 1: not shown
heavy 2: not shown
light: DIVMTQSPLSLPVTPGEPASISCQASESLVHSNRNTYLHWYLQKPGQSPQLLIYKVSNRFSGVPDRFSGSGSGTDFTLKISRVEAEDVGVYYCSQNTHVPPTFGQGTKVEIERTVAAPSVFIFPPSDEQLKSGTASVVCLLNNFYPREAKVQWKVDNALQSGNSQESVTEQDSKDSTYSLSSTLTLSKADYEKHKVYACEVTHQGLSSPVTKSFNRGEC
notes: as for B1
In the case of B4, the “Ia/IIb He_1a/2b” value in experiment [1] worked out at 0.46 ratio. For the same molecule, the He/Con_1a in experiment [2] is 101 % of control. The He/Con_2b in experiment [3] is 218 % of control.

B5: GpH7-A5/GpH7-B3 variant L235_09D/GpL16-k0 (antibody, human IgG1, kappa)
heavy 1: not shown
heavy 2: not shown
light: DIVMTQSPLSLPVTPGEPASISCQASESLVHSNRNTYLHWYLQKPGQSPQLLIYKVSNRFSGVPDRFSGSGSGTDFTLKISRVEAEDVGVYYCSQNTHVPPTFGQGTKVEIERTVAAPSVFIFPPSDEQLKSGTASVVCLLNNFYPREAKVQWKVDNALQSGNSQESVTEQDSKDSTYSLSSTLTLSKADYEKHKVYACEVTHQGLSSPVTKSFNRGEC
notes: as for B1
Consider B5, for which the “Ia/IIb He_1a/2b” value in experiment [1] is 0.8 ratio. The He/Con_1a in experiment [2] was 84.8 % of control. In addition, the He/Con_2b in experiment [3] is 106 % of control.

B6: GpH7-A5/GpH7-B3 variant L235_15Y/GpL16-k0 (antibody, human IgG1, kappa)
heavy 1: not shown
heavy 2: not shown
light: DIVMTQSPLSLPVTPGEPASISCQASESLVHSNRNTYLHWYLQKPGQSPQLLIYKVSNRFSGVPDRFSGSGSGTDFTLKISRVEAEDVGVYYCSQNTHVPPTFGQGTKVEIERTVAAPSVFIFPPSDEQLKSGTASVVCLLNNFYPREAKVQWKVDNALQSGNSQESVTEQDSKDSTYSLSSTLTLSKADYEKHKVYACEVTHQGLSSPVTKSFNRGEC
notes: as for B1
Turning to B6, the “Ia/IIb He_1a/2b” value in experiment [1] was determined as 0.65 ratio. For the same molecule, the He/Con_1a in experiment [2] was 97.1 % of control. For the same molecule, the He/Con_2b in experiment [3] is 149 % of control.

B7: GpH7-A5/GpH7-B3 variant P238_08L/GpL16-k0 (antibody, human IgG1, kappa)
heavy 1: not shown
heavy 2: not shown
light: DIVMTQSPLSLPVTPGEPASISCQASESLVHSNRNTYLHWYLQKPGQSPQLLIYKVSNRFSGVPDRFSGSGSGTDFTLKISRVEAEDVGVYYCSQNTHVPPTFGQGTKVEIERTVAAPSVFIFPPSDEQLKSGTASVVCLLNNFYPREAKVQWKVDNALQSGNSQESVTEQDSKDSTYSLSSTLTLSKADYEKHKVYACEVTHQGLSSPVTKSFNRGEC
notes: as for B1
With B7, the “Ia/IIb He_1a/2b” value in experiment [1] was determined as 0.49 ratio. Moreover, the He/Con_1a in experiment [2] was 101 % of control. In experiment [3], the He/Con_2b is 204 % of control.

B8: GpH7-A5/GpH7-B3 variant P238_06M/GpL16-k0 (antibody, human IgG1, kappa)
heavy 1: not shown
heavy 2: not shown
light: DIVMTQSPLSLPVTPGEPASISCQASESLVHSNRNTYLHWYLQKPGQSPQLLIYKVSNRFSGVPDRFSGSGSGTDFTLKISRVEAEDVGVYYCSQNTHVPPTFGQGTKVEIERTVAAPSVFIFPPSDEQLKSGTASVVCLLNNFYPREAKVQWKVDNALQSGNSQESVTEQDSKDSTYSLSSTLTLSKADYEKHKVYACEVTHQGLSSPVTKSFNRGEC
notes: as for B1
Turning to B8, the “Ia/IIb He_1a/2b” value in experiment [1] amounted to 0.59 ratio. Also, the He/Con_1a in experiment [2] was 102 % of control. Besides, the He/Con_2b in experiment [3] was 174 % of control.

B9: GpH7-A5/GpH7-B3 variant P238_04F/GpL16-k0 (antibody, human IgG1, kappa)
heavy 1: not shown
heavy 2: not shown
light: DIVMTQSPLSLPVTPGEPASISCQASESLVHSNRNTYLHWYLQKPGQSPQLLIYKVSNRFSGVPDRFSGSGSGTDFTLKISRVEAEDVGVYYCSQNTHVPPTFGQGTKVEIERTVAAPSVFIFPPSDEQLKSGTASVVCLLNNFYPREAKVQWKVDNALQSGNSQESVTEQDSKDSTYSLSSTLTLSKADYEKHKVYACEVTHQGLSSPVTKSFNRGEC
notes: as for B1
Turning to B9, the “Ia/IIb He_1a/2b” value in experiment [1] was 0.32 ratio. Moreover, the He/Con_1a in experiment [2] was 101 % of control. The He/Con_2b in experiment [3] is 312 % of control.

B10: GpH7-A5/GpH7-B3 variant P238_10E/GpL16-k0 (antibody, human IgG1, kappa)
heavy 1: not shown
heavy 2: not shown
light: DIVMTQSPLSLPVTPGEPASISCQASESLVHSNRNTYLHWYLQKPGQSPQLLIYKVSNRFSGVPDRFSGSGSGTDFTLKISRVEAEDVGVYYCSQNTHVPPTFGQGTKVEIERTVAAPSVFIFPPSDEQLKSGTASVVCLLNNFYPREAKVQWKVDNALQSGNSQESVTEQDSKDSTYSLSSTLTLSKADYEKHKVYACEVTHQGLSSPVTKSFNRGEC
notes: as for B1
For the molecule B10, the “Ia/IIb He_1a/2b” value in experiment [1] was 0.44 ratio. For the same molecule, the He/Con_1a in experiment [2] is 102 % of control. Also, the He/Con_2b in experiment [3] is 232 % of control.

B11: GpH7-A5/GpH7-B3 variant H268_09D/GpL16-k0 (antibody, human IgG1, kappa)
heavy 1: not shown
heavy 2: not shown
light: DIVMTQSPLSLPVTPGEPASISCQASESLVHSNRNTYLHWYLQKPGQSPQLLIYKVSNRFSGVPDRFSGSGSGTDFTLKISRVEAEDVGVYYCSQNTHVPPTFGQGTKVEIERTVAAPSVFIFPPSDEQLKSGTASVVCLLNNFYPREAKVQWKVDNALQSGNSQESVTEQDSKDSTYSLSSTLTLSKADYEKHKVYACEVTHQGLSSPVTKSFNRGEC
notes: as for B1
B11: the “Ia/IIb He_1a/2b” value in experiment [1] was 0.46 ratio. For the same molecule, the He/Con_1a in experiment [2] was 110 % of control. Also, in experiment [3], the He/Con_2b is 239 % of control.

B12: GpH7-A5/GpH7-B3 variant L235_20W/GpL16-k0 (antibody, human IgG1, kappa)
heavy 1: not shown
heavy 2: not shown
light: DIVMTQSPLSLPVTPGEPASISCQASESLVHSNRNTYLHWYLQKPGQSPQLLIYKVSNRFSGVPDRFSGSGSGTDFTLKISRVEAEDVGVYYCSQNTHVPPTFGQGTKVEIERTVAAPSVFIFPPSDEQLKSGTASVVCLLNNFYPREAKVQWKVDNALQSGNSQESVTEQDSKDSTYSLSSTLTLSKADYEKHKVYACEVTHQGLSSPVTKSFNRGEC
notes: as for B1
B12: in experiment [1], the “Ia/IIb He_1a/2b” value turned out to be 0.63 ratio. Moreover, the He/Con_1a in experiment [2] was 92.8 % of control. In experiment [3], the He/Con_2b was 147 % of control.

B13: GpH7-A5/GpH7-B3 variant L234_09D/GpL16-k0 (antibody, human IgG1, kappa)
heavy 1: not shown
heavy 2: not shown
light: DIVMTQSPLSLPVTPGEPASISCQASESLVHSNRNTYLHWYLQKPGQSPQLLIYKVSNRFSGVPDRFSGSGSGTDFTLKISRVEAEDVGVYYCSQNTHVPPTFGQGTKVEIERTVAAPSVFIFPPSDEQLKSGTASVVCLLNNFYPREAKVQWKVDNALQSGNSQESVTEQDSKDSTYSLSSTLTLSKADYEKHKVYACEVTHQGLSSPVTKSFNRGEC
notes: as for B1
For the molecule B13, the “Ia/IIb He_1a/2b” value in experiment [1] is 0.65 ratio. Further, the He/Con_1a in experiment [2] is 97.8 % of control. For the same molecule, in experiment [3], the He/Con_2b was 150 % of control.

For the origin of these results see patent publication US20180155451A1 (published 2018).
